Results: paper PMC3978166, “A new unconventional HLA-A2-restricted epitope from HBV core protein elicits antiviral cytotoxic T lymphocytes” (Protein & Cell, 2014)

Key:
[1] = molecular target: HLA-A*0201 molecules on T2 cells (human (endogenous in T2)); test: flow cytometry on cells
HLA-A*0201 molecules = HLA-A*0201 molecules (Homo sapiens, UniProt P04439, D140Y/D185E/D98H/E176V/E277Q/G131W/G231S/I119V/I121R/I166T/I218V/L300P/L318F/N151K/N90K/P208A/P217A/Q86G/Q94H/R138H/R169H/T345S); test: T2 binding assay (MHC stabilization assay with T2 cells, flow cytometry); type: cell-based; settings: FI = (mean FITC fluorescence with peptide − without peptide)/(without peptide), high affinity FI ≥1, representative of three independent experiments
Excerpt: (A) The overlapping method of 8 aa overlap was used to synthesize a total of 191 nonapeptides covering HBc aa 1–150. […] (C and D) Measurement of the binding affinity of HBc141–149N- or C-terminally truncated (C) or extended (D) peptides to HLA-A*0201. HBc82-90 served as a negative control (NC). (E) In vitro refolding of HBC141–149 peptide with HLA-A*0201 heavy chain and β2m. Gel filtration chromatography was used to analyze the refolded complexes on a Superdex200 16/60 column. […] The HLA complex (peak 2) was analyzed by SDS-PAGE electrophoresis and coomassie blue staining
T2 cells were used to perform MHC stabilization assays as previously described (Zhou et al., [2006]). The binding activity of each peptide was calculated as the fluorescent index (FI), and the FI was determined by: (mean FITC fluorescence with the given peptide − mean FITC fluorescence without peptide) (mean FITC fluorescence without peptide).

peptide-specific CTLs [2] = test: IFN-γ ELISPOT on splenocytes of immunized HLA-A2.1/Kb transgenic mice; type: in vivo; settings: female HLA-A2.1/Kb mice, HBc DNA prime/peptide boost with gp96 adjuvant, 1 week after last immunization; 5 × 10^5 splenocytes; mean ± SD of five mice (Fig. 3A)
Procedure: Figure 3 Detection of HBc141–149 peptide-specific CD8 ^+ T cell response in HLA-A2.1/Kb mice and AHB patients. Female HLA-A2.1/Kb transgenic mice were immunized with an HBV DNA prime/peptide boost regimen at weeks 1, 3, and 4. […] (B and C) 293T cells labeled with CFSE were transfected with pHBV1.3 as target cells (B), and T2 cells labeled with CFSE were loaded with 20 μg/mL peptide at 37°C for 1 h as target cells (C). […] After 4 h, the mixed samples were stained with PI, and the killing of target cells were analyzed by FACS. The data shown are the mean ± SD of five mice. (D) AHB patients (n = 29) were divided into HLA-A2-positive (n = 19) and HLA-A2-negative (n = 10) groups. PBMCs (2 × 10^5/well) from these patients were stimulated with the indicated peptides for detection of peptide-specific CTLs by ELISPOT assay. HBc82–90 peptide served as negative control for background evaluation in ELISPOT assay. PBMCs from HLA-A2- patients were used for specificity evaluation of CTLs. Paired samples t-tests were used for ELISPOT assay in AHB patients. *P < 0.05 and **P < 0.01 by t-test. Data are representative of two independent experiments […]
To detect epitope-specific T cells, enzyme-linked immunosorbent spot (ELISPOT) assay was performed according to the manufacturer’s instruction. […] The spots were counted and analyzed using an ELISPOT Reader (Cellular Technology Ltd, USA).

peptide-specific CTLs [3] = test: Ex vivo IFN-γ ELISPOT on PBMCs from HLA-A2+ AHB patients; type: cell-based, human; settings: PBMCs 2 × 10^5/well from HLA-A2+ AHB patients (n = 19), 50 μg/mL peptide; mean ± SD (Fig. 3D)
Excerpt: (D) AHB patients (n = 29) were divided into HLA-A2-positive (n = 19) and HLA-A2-negative (n = 10) groups. PBMCs (2 × 10^5/well) from these patients were stimulated with the indicated peptides for detection of peptide-specific CTLs by ELISPOT assay. […] PBMCs from HLA-A2- patients were used for specificity evaluation of CTLs. Paired samples t-tests were used for ELISPOT assay in AHB patients. *P < 0.05 and **P < 0.01 by t-test. Data are representative of two independent experiments
A total of 29 AHB patients were enrolled for blood collection, which were divided into two groups: HLA-A2-positive (n = 19) and HLA-A2-negative (n = 10). All patients were negative for HCV, HDV, and HIV-1 infection. 10 mL of blood samples were collected from each patient.
To detect epitope-specific T cells, enzyme-linked immunosorbent spot (ELISPOT) assay was performed according to the manufacturer’s instruction. Briefly, ninety-six well PVDF plates (BD-Pharmigen, San Diego, CA) were precoated overnight at 4°C with the coating Ab and blocked for 1 h at 37°C. Patient PBMCs (2 × 10^5) or murine splenocytes (10^6) were added to each well together with 50 μg/mL of peptide and incubated at 37°C for 24–48 h with phytohemagglutinin (PHA)-stimulated T cells as positive controls. Each test was performed at least in triplicate. The spots were counted and analyzed using an ELISPOT Reader (Cellular Technology Ltd, USA).

Substance	FI (fluorescent index) [1]	FI (fluorescent index), binding to HLA-A*0201 (HLA-A*0201 molecules)	also measured
HBc60–68 (V60) peptide	2.64		
HBc140–149 peptide	0.033		
HBc141–148 peptide	0.124		
HBc141–149 peptide	2.41		
HBc141–150 peptide	0.005		
HBc142–149 peptide	0.151		
LSTLPETTVV [HBc140–149, extended decapeptide of HBc141–149, […]]		0.033	
RELVVSYVN [HBc82–90]			peptide-specific CTL response, IFN-γ ELISPOT (SFC) (peptide-specific CTLs [2]): No peptide-specific CD8^+ T cell response was detected; peptide-specific CTL response, ex vivo IFN-γ ELISPOT (peptide-specific CTLs [3]): 20.94 ± 17.57
STLPETTV [HBc141–148]		0.124	
TLPETTVV [HBc142–149]		0.151	
